The target in experiment [1] is human XIAP protein (residues 120-356) (human) (UniProt P98170). Nature of the experiment: fluorescence polarization competition against the Smac2-F tracer.
Experiment [2] deals with caspase-7 (UniProt P55210). Description: cell-based or functional assay.
Experiment [3] deals with caspase-3 (UniProt P42574). Nature of the experiment: cell-based or functional assay.
In experiment [4] the target is T1, recombinant XIAP BIR3 protein of human XIAP (residues 241-356) fused to His-tag (human, UniProt P98170 241-356).
T1 construct: range 241-356; not shown: His-tag
T1 sequence (P98170 241-356 limits assumed): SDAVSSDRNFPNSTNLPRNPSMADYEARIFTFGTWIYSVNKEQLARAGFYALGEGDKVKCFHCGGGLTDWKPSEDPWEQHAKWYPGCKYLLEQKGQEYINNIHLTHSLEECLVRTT
Description: fluorescence polarization, direct binding of the labelled peptide.

Non-standard residues stand in square brackets, D forms with d. No end group written: not given here. *: point of attachment. 5FAM = O=C1OC2(c3ccc(O)cc3Oc3cc(O)ccc32)c2ccc(C(=O)*)cc21; Abu = CC[C@H](N)C(=O)O

From patent US20090123480A1 (REGENTS OF THE UNIVERSITY OF MICHIGAN, published 2009) come the findings set out here.

caspase-7, sequence (P55210 24-303 limits assumed): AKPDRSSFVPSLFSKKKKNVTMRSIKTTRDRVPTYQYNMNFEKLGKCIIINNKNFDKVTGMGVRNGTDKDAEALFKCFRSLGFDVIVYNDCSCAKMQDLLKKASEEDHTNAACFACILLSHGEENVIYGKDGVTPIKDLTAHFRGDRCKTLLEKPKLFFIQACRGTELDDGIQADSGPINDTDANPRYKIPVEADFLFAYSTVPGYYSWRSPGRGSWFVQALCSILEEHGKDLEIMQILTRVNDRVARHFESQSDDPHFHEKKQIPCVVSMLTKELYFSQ
caspase-3, sequence (P42574 29-277 limits assumed): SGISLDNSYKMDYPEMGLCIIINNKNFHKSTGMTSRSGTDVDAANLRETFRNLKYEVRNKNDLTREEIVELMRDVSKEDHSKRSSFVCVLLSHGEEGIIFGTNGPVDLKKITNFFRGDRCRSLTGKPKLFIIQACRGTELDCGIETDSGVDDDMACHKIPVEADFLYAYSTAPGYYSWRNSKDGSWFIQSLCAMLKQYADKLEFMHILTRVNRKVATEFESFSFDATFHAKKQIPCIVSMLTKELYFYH
human XIAP protein (residues 120-356) (human), sequence (P98170 120-356 limits assumed): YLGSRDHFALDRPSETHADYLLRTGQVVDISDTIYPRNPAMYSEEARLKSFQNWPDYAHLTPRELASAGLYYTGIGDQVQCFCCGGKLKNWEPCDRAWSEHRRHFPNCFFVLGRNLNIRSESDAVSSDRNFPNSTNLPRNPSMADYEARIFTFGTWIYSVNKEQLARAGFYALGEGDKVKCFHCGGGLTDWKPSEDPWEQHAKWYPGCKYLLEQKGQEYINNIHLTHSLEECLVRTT

With “natural Smac peptide AVPI (SEQ ID NO: 1)”, in experiment [1], the fold less potent than the small molecule SH-164 (IC50 […] nM) in the competitive binding assay is more than 5000 fold. Take “human XIAP protein (residues 120-356) (from UniProt P98170 120-356)”: the inhibition of caspase-3/-7 activity, cell-free functional assay in experiment [2] and in experiment [3] was 50 nM in each case.

B1: mutated Smac peptide AbuRPF-K-(5-Fam)-NH2 (termed SM5F) (peptide)
peptide: [Abu]RPFK(5FAM)-NH2
modifications: N-terminus assumed
SMILES: CC[C@H](N)C(=O)N[C@@H](CCCNC(=N)N)C(=O)N1CCC[C@H]1C(=O)N[C@@H](Cc1ccccc1)C(=O)N[C@@H](CCCCNC(=O)c1ccc2c(c1)C(=O)OC21c2ccc(O)cc2Oc2cc(O)ccc21)C(N)=O
notes: Fluorescent tracer of the XIAP BIR3 fluorescence polarization assay; also called SM5F peptide
As to B1, the Kd in experiment [4] worked out at 17.9 nM.
